± gives the uncertainty stated by the source.
Experiment: protein stability index of a GFP-peptide fusion (yeast GPS) (PSI 1-4); higher = more stable; sorted into four equal gates, so the index is relative within each strain
Method in brief: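 Mid-log yeast cultures in leucine-free medium, carrying a pooled plasmid library, were sorted into four equal gates by their GFP/Cherry fluorescence ratio. Each plasmid expressed Cherry along with GFP fused upstream of a tiled 17-residue yeast protein peptide. Plasmids recovered from each gate were PCR-amplified and Illumina-sequenced, with reads assigned to strains by barcodes. The protein stability index was obtained by summing each gate's read frequency weighted by its gate number.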

Sequence	protein stability index (doa10∆)	protein stability index (pdr5∆)	protein stability index (san1∆)	protein stability index (ubr1∆)
EDEDEDLFGDSNKSNST [SSN2]	2.69 ± 0.05	2.82 ± 0.061	2.86 ± 0.079	2.18 ± 0.032
YQLNDRNVTKGDIVRML [SMC3]	2.72 ± 0.24	3.03 ± 0.17	2.84 ± 0.14	3.02 ± 0.11
NFTSPTAVVNNAAPANV [SWI1]	2.86 ± 0.057	2.77 ± 0.08	2.69 ± 0.088	2.91 ± 0.053
LRLLLLLIEFPYLPKHY [YJR042W/NUP85]	1.81 ± 0.052	1.72 ± 0.054	1.55 ± 0.062	1.76 ± 0.047
EVTEGQAEATEWAEENA [RPS0B]	2.44 ± 0.27	3.22 ± 0.22	2.44 ± 0.17	2.44 ± 0.14
TLIVVPFNQGSKQDVEA [FAS2]	2.87 ± 0.12	3.2 ± 0.12	3.13 ± 0.09	3.3 ± 0.12
VKAFLSIFEDAIKELNY [NUT1]	2.04 ± 0.091	1.73 ± 0.087	2.55 ± 0.19	2.62 ± 0.19
SAAINNEDARAIFNNEF [RPN4]		3.21 ± 0.23	3.04 ± 0.27	
TDAHTPLARNYIKSMDL [RPR2]	2.67 ± 0.044	2.73 ± 0.044	2.68 ± 0.041	2.86 ± 0.032
GRTPNISNGTINIQKKL [SIR4]	2.37 ± 0.058	2.64 ± 0.048	2.58 ± 0.063	2.16 ± 0.041
SSNKDLEDEKMKFQESL [SMC4]		2.08 ± 0.26		
DLISKKTKTSLLPTIKR [RPR2]	3.09 ± 0.079	2.58 ± 0.073	2.58 ± 0.086	2.74 ± 0.063
YIDYSSKRYIPSVNDFV [RRP40]	2.51 ± 0.048	2.83 ± 0.051	2.42 ± 0.1	2.6 ± 0.078
GSNNGFGNKPAGSTGFS [YGR119C/NUP57]	1.65 ± 0.076	1.24 ± 0.083	1.27 ± 0.15	2.22 ± 0.16
VEIEKRILKLGTQLATL [YGR119C/NUP57]	2.11 ± 0.23	1.22 ± 0.14	1.94 ± 0.18	1.4 ± 0.066
KNRRRIHGELKTYKEGI [SMC1]	3.23 ± 0.13	3.35 ± 0.062	3.17 ± 0.095	3.18 ± 0.054
AINIMNRSNDALIKFME [FAS2]	3.19 ± 0.15	3.45 ± 0.15	3.26 ± 0.093	3.38 ± 0.15
VAFVCSPISDSRDELIR [RPN10]	2.42 ± 0.093	2.56 ± 0.11	1.67 ± 0.12	2.34 ± 0.099
EFVHKYLGEGPRMVRDV [RPT3]	3.39 ± 0.14	3.43 ± 0.084	3.14 ± 0.062	3.17 ± 0.077
KKIGCYMFANLEFSIYH [CSN12]	2.07 ± 0.071	1.95 ± 0.064	2.98 ± 0.06	2.51 ± 0.052
KLKQGQKLFVQVSNFAP [GAL11]	2.74 ± 0.063	2.81 ± 0.057	3.01 ± 0.051	2.84 ± 0.05
LSVMCGCGTVKRFNIGA [RPR2]	3.16 ± 0.21	2.97 ± 0.12	3.14 ± 0.14	2.07 ± 0.18
IEQEKQEQQEQDKKKKS [PRE6]	2.17 ± 0.069	1.82 ± 0.06	2.59 ± 0.077	1.59 ± 0.049
NAELLDYLFHLLISLNI [YLR018C/POM34]	1.79 ± 0.044	1.37 ± 0.031	1.21 ± 0.068	1.28 ± 0.027
ALEFVSLLLSSVKESTG [SRB4]	1.26 ± 0.046	1.61 ± 0.043	1.4 ± 0.11	1.24 ± 0.048
RATNCRKRKCGHTNQLR [RPL40A]	3.25 ± 0.092	3.13 ± 0.058	3.12 ± 0.048	3.17 ± 0.051

Sequence	protein stability index (doa10∆)	protein stability index (pdr5∆)	protein stability index (san1∆)	protein stability index (ubr1∆)
QVLSQSADPSLLIDQFS [SWI1]	3.03 ± 0.1	2.96 ± 0.073	3.02 ± 0.084	2.99 ± 0.057
EAINGFKDETISKKIIG [SIR3]	3.08 ± 0.065	3.19 ± 0.057	2.95 ± 0.082	3.09 ± 0.063
WFLDHNYIENMNEMCKK [RPN8]	3.54 ± 0.18	3.26 ± 0.12	2.93 ± 0.077	3.2 ± 0.083
ILECDLLICIGTSLKVA [SIR2]	2.05 ± 0.081	1.59 ± 0.061	2.14 ± 0.15	1.73 ± 0.05
FSFGAATPSAKEASQED [YLR335W/NUP2]	3.29 ± 0.062	3.25 ± 0.074	3.12 ± 0.055	3.16 ± 0.087
NTTQDNGGDKELEMIGG [YCS4]	3.26 ± 0.17	3.06 ± 0.17	2.46 ± 0.2	3.26 ± 0.23
DTNSSKPKNTKENLSKS [SIR4]	1.33 ± 0.21	1.56 ± 0.12	2.05 ± 0.15	
ESDLYKLKECPFDMGGY [RPB2]	3.13 ± 0.076	3.25 ± 0.087	3.22 ± 0.068	3.34 ± 0.036
FEYSKYRPLTPSSEVYS [RRP6]	3.07 ± 0.086	3.01 ± 0.071	2.87 ± 0.053	2.83 ± 0.056
ELDRAAMNDKDLTMGQV [RPO21]	3.29 ± 0.17	3.31 ± 0.14	2.8 ± 0.13	3.12 ± 0.097
VPSTTNVNMTVNTMGTG [MED6]	3.23 ± 0.3	3.37 ± 0.11	2.91 ± 0.17	2.61 ± 0.13
PQMQCALQNLSQLPITP [YGL172W/NUP49]	2.06 ± 0.087	2.23 ± 0.098	2.12 ± 0.1	2.23 ± 0.068
VSPAFRVQVGDIVTVGQ [RPS11A]	2.49 ± 0.091	2.96 ± 0.093	2.55 ± 0.14	2.42 ± 0.078
EIDTILSTLRMEADPSL [RPN9]	3.04 ± 0.24	3.04 ± 0.21	2.56 ± 0.13	2.67 ± 0.087
FPQYKLTTFANQVMMDR [ARP7]	2.6 ± 0.096	2.19 ± 0.071	2.03 ± 0.13	2.4 ± 0.06
PTLGERLDNLQDIKKAK [DSN1]	1.54 ± 0.082	1.25 ± 0.041	2.71 ± 0.085	2.86 ± 0.064
KLYKKIAKFERSEEEVT [YIL149C/MLP2]	3.25 ± 0.1	3.19 ± 0.078	3.17 ± 0.064	3.3 ± 0.078
EQIDENWSKEDLQKLLK [SWI3]	3.16 ± 0.067	3.08 ± 0.085	3.02 ± 0.073	3.26 ± 0.058
LKCAERQLTSMEFSNLY [NUT1]	2.06 ± 0.054	1.87 ± 0.034	1.65 ± 0.072	2.17 ± 0.032
YLADDIDADSLEDIYTS [RPL5]	2.68 ± 0.095	1.96 ± 0.08	2 ± 0.08	2.37 ± 0.065
RQPSLHKMSMMAHRVKV [RPO21]	2.2 ± 0.085	2.37 ± 0.073	2.81 ± 0.09	1.68 ± 0.082
SDVLLFQLPTTCVSMAP [RGR1]	2.25 ± 0.047	1.83 ± 0.036	1.87 ± 0.05	1.77 ± 0.028
PENTAMFNPLHESYCLP [YMR129W/POM152]	2.44 ± 0.043	2.66 ± 0.042	2.66 ± 0.037	2.6 ± 0.03
TLSEPVQGELKPTVILK [FAS1]	2.23 ± 0.054	2.22 ± 0.059	2.08 ± 0.072	1.63 ± 0.038
KQTKLRKEKEKKPGKIA [SMB1]		3.36 ± 0.15	2.51 ± 0.29	
